Broadly, the EC50 (read off the curve) is the concentration needed to bring the measured effect to its halfway point. As a reminder, the Kd is the constant that tells how readily two partners part at equilibrium.

Test [1] has as its target P84S variant of the truncated E. coli SPase (Δ2-75) (Escherichia coli) (UniProt P00803). Put plainly: steady-state increase of arylomycin fluorescence (ex 320 nm, em 410 nm) on binding the soluble N-terminally truncated (delta 2-75) E. coli SPase P84S.
Test [2] concerns the target full-length wild type S. aureus SPase (His6x-tagged SpsB) (Staphylococcus aureus). Put plainly: steady-state increase of arylomycin fluorescence (ex 320 nm, em 410 nm) on binding full-length wild type S. aureus SPase.
Test [3] has as its target P84S variant of the truncated E. coli SPase (Δ2-75) (Escherichia coli) (UniProt P00803). Briefly: steady-state binding by increase of arylomycin fluorescence (ex 320 nm, em 410 nm); truncated SPase in n-octyl-β-glucopyranoside micelles.
Test [4] concerns the target full-length P29S mutant of S. aureus SPase (His6x-tagged SpsB(P29S)) (Staphylococcus aureus). Briefly: steady-state binding by increase of arylomycin fluorescence; full-length His-tagged S. aureus SPase, buffer with 10% glycerol.
Test [5] concerns the target full-length wild type S. aureus SPase (His6x-tagged SpsB) (Staphylococcus aureus). The description is as above.
Test [6] has as its target full-length P29S mutant of S. aureus SPase (His6x-tagged SpsB(P29S)) (Staphylococcus aureus). Put plainly: steady-state increase of arylomycin fluorescence (ex 320 nm, em 410 nm) on binding full-length S. aureus SPase P29S.

As to arylomycin C16 (peptide), the EC50 (read off the curve) was 0.09 µM in test [1], 2 µM in test [2] and 0.2 µM in test [6]. The Kd in test [3] is 0.039 µM; in test [4] it was 0.13 µM; in test [5] it was 1.28 µM.

These data come from US20160297851A1, “BROAD SPECTRUM […]” (priority 2012, published 2016).
